# Assay results as given in publication PMC2358973, “A Cysteine Protease Is Critical for Babesia spp. Transmission in Haemaphysalis Ticks” (PLoS Pathogens, 2008).
# Tests used:
# [1] = system: T1, Cc1cc(=O)oc2cc(NC(=O)[C@H](CCCNC(=N)N)NC(=O)[C@H](CCCNC(=N)N)NC(=O)OCc3ccccc3)ccc12; assay: fluorogenic hydrolysis assay, Michaelis-Menten fit; type: biochemical, Haemaphysalis longicornis; settings: 25 mM citric acid/sodium phosphate, pH 6.0, 5 mM DTT
# T1 construct: partial coding region (pPICZC) expressed in Pichia pastoris GS115, HiTrap chelating column purified; precursor 341 residues with 17-residue signal peptide
# Source text: (§1) fluorogenic hydrolysis assay, Michaelis-Menten fit on longipain
# [2] = system: T2, Cc1cc(=O)oc2cc(NC(=O)[C@H](CCCNC(=N)N)NC(=O)[C@H](Cc3ccccc3)NC(=O)OCc3ccccc3)ccc12; assay: fluorogenic hydrolysis assay, Michaelis-Menten fit; type: biochemical, Haemaphysalis longicornis; settings: 25 mM citric acid/sodium phosphate, pH 6.0, 5 mM DTT
# T2 construct: partial coding region (pPICZC) expressed in Pichia pastoris GS115, HiTrap chelating column purified; precursor 341 residues with 17-residue signal peptide
# Source text: as §1
substance,measurement,setting,value
longipain (Haemaphysalis longicornis),Km,[1],16.0 ± 0.2 µM
same,kcat,[1],800 s⁻¹
same,kcat/Km,[1],5e+07 M⁻¹ s⁻¹
same,Km,[2],12.1 ± 0.08 µM
same,kcat,[2],550 s⁻¹
same,kcat/Km,[2],4.5e+07 M⁻¹ s⁻¹
